US20050164925A1 (JOSEPH ANTHONY JAKUBOWSKI AND THURMAN DWIGHT MC KINNEY, published 2005)
Values joined by “and” are separate entries in the source; they are usually repeats but may differ in a detail not shown here. Identical values can stand only once. Where no end group is shown, it is not given here.

T1: human GLP-1 receptor (human), P43220
T1 chain: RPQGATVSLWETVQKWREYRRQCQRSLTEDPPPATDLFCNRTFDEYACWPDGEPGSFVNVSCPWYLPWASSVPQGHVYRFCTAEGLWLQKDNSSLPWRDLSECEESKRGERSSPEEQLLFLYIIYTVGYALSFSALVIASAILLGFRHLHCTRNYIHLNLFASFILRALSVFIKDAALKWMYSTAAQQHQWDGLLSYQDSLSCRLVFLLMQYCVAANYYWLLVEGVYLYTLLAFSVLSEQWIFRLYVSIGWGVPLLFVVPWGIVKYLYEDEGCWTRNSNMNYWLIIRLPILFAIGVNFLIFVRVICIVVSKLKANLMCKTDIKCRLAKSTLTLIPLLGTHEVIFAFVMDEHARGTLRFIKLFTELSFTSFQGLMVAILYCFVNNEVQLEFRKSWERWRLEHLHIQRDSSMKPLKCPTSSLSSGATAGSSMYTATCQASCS

B1: Val^8-Tyr^12-GLP-1(7-36)NH2 (peptide)
peptide: HVEGTYTSDVSSYLEGQAAKEFIAWLVKGX
modifications: C-terminal amide (Xaa at position 37 is -NH2)
B2: Val^8-Glu^22-Val^25-GLP-1(7-37)OH (peptide)
peptide: HVEGTFTSDVSSYLEEQAVKEFIAWLVKGRG-OH
B3: Val^8-Tyr^16-GLP-1(7-37)OH (peptide)
peptide: HVEGTFTSDYSSYLEGQAAKEFIAWLVKGRG-OH
B4: Val^8-Tyr^16-Phe^19-GLP-1(7-37)OH (peptide)
peptide: HVEGTFTSDYSSFLEGQAAKEFIAWLVKGRG-OH
B5: Val^8-Trp^19-Glu^22-GLP-1(7-37)OH (peptide)
peptide: HVEGTFTSDVSSWLEEQAAKEFIAWLVKGRG-OH
B6: Val^8-Glu^22-Ile^33-GLP-1(7-37)OH (peptide)
peptide: HVEGTFTSDVSSYLEEQAAKEFIAWLIKGRG-OH
B7: Val^8-Phe^20-Glu^22-GLP-1(7-37)OH (peptide)
peptide: HVEGTFTSDVSSYFEEQAAKEFIAWLVKGRG-OH
B8: Val^8-Tyr^12-Glu^22-GLP-1(7-37)OH (peptide)
peptide: HVEGTYTSDVSSYLEEQAAKEFIAWLVKGRG-OH
B9: Val^8-Ile^16-Glu^22-GLP-1(7-37)OH (peptide)
peptide: HVEGTFTSDISSYLEEQAAKEFIAWLVKGRG-OH
B10: Val^8-Glu^22-Val^25-Ile^33-GLP-1(7-37)OH (peptide)
peptide: HVEGTFTSDVSSYLEEQAVKEFIAWLIKGRG-OH
B11: Val^8-Phe^16-Glu^22-GLP-1(7-37)OH (peptide)
peptide: HVEGTFTSDFSSYLEEQAAKEFIAWLVKGRG-OH
B12: Val^8-Trp^16-Glu^22-Val^25-GLP-1(7-37)OH (peptide)
peptide: HVEGTFTSDWSSYLEEQAVKEFIAWLVKGRG-OH
B13: Val^8-Trp^16-Glu^22-GLP-1(7-37)OH (peptide)
peptide: HVEGTFTSDWSSYLEEQAAKEFIAWLVKGRG-OH
B14: Val^8-Tyr^16-Glu^22-GLP-1(7-37)OH (peptide)
peptide: HVEGTFTSDYSSYLEEQAAKEFIAWLVKGRG-OH
B15: Val^8-Trp^16-Glu^22-Val^25-Ile^33-GLP-1(7-37)OH (peptide)
peptide: HVEGTFTSDWSSYLEEQAVKEFIAWLIKGRG-OH
B16: Val^8-Tyr^16-Trp^19-Glu^22-GLP-1(7-37)OH (peptide)
peptide: HVEGTFTSDYSSWLEEQAAKEFIAWLVKGRG-OH
B17: Val^8-Tyr^12-Tyr^16-GLP-1(7-37)OH (peptide)
peptide: HVEGTYTSDYSSYLEGQAAKEFIAWLVKGRG-OH
B18: Val^8-Lys^18-Glu^22-GLP-1(7-37)OH (peptide)
peptide: HVEGTFTSDVSKYLEEQAAKEFIAWLVKGRG-OH
B19: Val^8-Glu^22-Ala^27-GLP-1(7-37)OH (peptide)
peptide: HVEGTFTSDVSSYLEEQAAKAFIAWLVKGRG-OH
B20: Val^8-Ile^18-Glu^22-GLP-1(7-37)OH (peptide)
peptide: HVEGTFTSDVSIYLEEQAAKEFIAWLVKGRG-OH
B21: Val^8-Glu^30-GLP-1(7-37)OH (peptide)
peptide: HVEGTFTSDVSSYLEGQAAKEFIEWLVKGRG-OH
B22: Val^8-Leu^16-GLP-1(7-37)OH (peptide)
peptide: HVEGTFTSDLSSYLEGQAAKEFIAWLVKGRG-OH
B23: Val^8-Phe^19-Glu^22-GLP-1(7-37)OH (peptide)
peptide: HVEGTFTSDVSSFLEEQAAKEFIAWLVKGRG-OH
B24: Val^8-Leu^16-Glu^22-GLP-1(7-37)OH (peptide)
peptide: HVEGTFTSDLSSYLEEQAAKEFIAWLVKGRG-OH
B25: Val^8-Trp^16-Glu^22-Ile^33-GLP-1(7-37)OH (peptide)
peptide: HVEGTFTSDWSSYLEEQAAKEFIAWLIKGRG-OH
B26: Val^8-Asp^9-Ile^11-Tyr^16-Glu^22-GLP-1(7-37)OH (peptide)
peptide: HVDGIFTSDYSSYLEEQAAKEFIAWLVKGRG-OH
B27: Val^8-Glu^22-His^37-GLP-1(7-37)OH (peptide)
peptide: HVEGTFTSDVSSYLEEQAAKEFIAWLVKGRH-OH
B28: Val^8-Leu^25-GLP-1(7-37)OH (peptide)
peptide: HVEGTFTSDVSSYLEGQALKEFIAWLVKGRG-OH
B29: Val^8-Trp^12-Glu^22-GLP-1(7-37)OH (peptide)
peptide: HVEGTWTSDVSSYLEEQAAKEFIAWLVKGRG-OH
B30: Val^8-Glu^22-Leu^25-GLP-1(7-37)OH (peptide)
peptide: HVEGTFTSDVSSYLEEQALKEFIAWLVKGRG-OH
B31: Val^8-Trp^18-Glu^22-GLP-1(7-37)OH (peptide)
peptide: HVEGTFTSDVSWYLEEQAAKEFIAWLVKGRG-OH
B32: Val^8-Tyr^18-Glu^22-GLP-1(7-37)OH (peptide)
peptide: HVEGTFTSDVSYYLEEQAAKEFIAWLVKGRG-OH

target: human GLP-1 receptor (human, UniProt P43220 24-463); assay: cell-based or functional assay; settings: not given

EC50 Relative to Val^8-GLP-1(7-37)OH | Molecule
1.1 relative to Val^8-GLP-1(7-37)OH | B1

Target: T1, human GLP-1 receptor (human), P43220
Assay: cell-based or functional assay
Settings: not given

EC50 Relative to Val^8-GLP-1(7-37)OH (relative to Val^8-GLP-1(7-37)OH) | Molecule
4.7 and 2.9 | B2
2.5 | B3
2.8 | B4
3.2 | B5
4.7 and 3.8 and 3.4 | B6
2.7 | B7
2.7 | B8
3.3 | B9
4.9 and 5.8 and 6.7 | B10
2.3 | B11
4.4 | B12
4.9 and 4.6 | B13
3.6 and 3.8 | B14
5 | B15
3.5 | B16
1.5 | B17

EC50 Relative to Val^8-GLP-1(7-37)OH (relative to Val^8-GLP-1(7-37)OH) | Molecule
2.5 | B18
2.2 | B19
4 | B20
0.7 | B21
1.1 | B22
1.5 | B23
4.3 | B24
4.1 | B25
4.3 | B26
4.7 | B27
0.5 | B28
1.7 | B29
2.8 | B30
3.2 and 6.6 | B31
5.1 and 5.9 | B32

target: T2, human GLP-1 receptor (Homo sapiens, UniProt P43220); assay: In vitro potency assay (CRE-BLAM reporter, GLP-1 receptor signaling); format: cell-based; settings: in vitro potency relative to Val^8-GLP-1(7-37)OH
T2 construct: expressed in transfected cells; host or cells: HEK-293 Aurora CRE-BLAM cells
From the text: The extent of the induction of cAMP levels can then be measured using a cAMP response element which drives the expression of a reporter gene such as luciferase or beta lactamase.
These HEK-293 cells have stably integrated a DNA vector having a cAMP response element (CRE) driving expression of the β-lactamase (BLAM) gene.
The day after seeding, the medium is replaced with plasma free medium.

Molecule | potency higher than Val^8-GLP-1(7-37)OH
Exendin-4 | approximately 5 fold
Val^8-Glu^22-GLP-1(7-37)OH | approximately 3 fold
